T1: Recombinant S. cerevisiae PCNA with an His-Tag (S. cerevisiae, UniProt P15873 1-258)
T1 construct: PCNA (proliferating cell nuclear antigen, gene POL30), S. cerevisiae; also called purified PCNA; source: E. coli (pET28c), purified on a HisTrap column
T1 sequence (looked up): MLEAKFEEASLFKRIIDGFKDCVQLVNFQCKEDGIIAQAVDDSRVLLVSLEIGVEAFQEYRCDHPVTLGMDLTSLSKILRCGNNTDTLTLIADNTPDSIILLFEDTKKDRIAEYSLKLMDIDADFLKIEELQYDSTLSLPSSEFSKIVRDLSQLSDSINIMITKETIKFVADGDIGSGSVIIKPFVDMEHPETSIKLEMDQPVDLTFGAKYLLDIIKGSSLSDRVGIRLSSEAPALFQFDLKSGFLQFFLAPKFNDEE


Target: T1, Recombinant S. cerevisiae PCNA with an …
Assay: ITC; VP-ITC; 20–25 μM PCNA in the cell, 270 μM peptide in the syringe; 30°C; buffer T (20 mM Tris pH 7.5, 50 mM NaCl, 20 mM β-mercaptoethanol); single set of independent binding sites model
Details: both partners purified

Kd	dH	Binder
310 nM	-6.4 kcal/mol	QKKMKQSSLLSFFSKQVPSGTP (Msh6, S. cerevisiae, residues 22-43 with the canonical PIP motif; also called Msh6 peptide; canonical PIP motif of Msh6; source: synthetic peptide, bought: Genecust, 95% purity) [pMsh6 22–43]
> 50000 nM		KSLFDKSLESYFNGSNKEILN (Pol31 (B subunit of DNA polymerase delta), S. cerevisiae, residues 317-337 with the proposed motif LxxYF; also called Pol31 peptide; non-canonical Pol31 PIP motif peptide; source: synthetic peptide, bought: Genecust, 95% purity) [pPol31 317–337]
460 nM	-4.45 kcal/mol	KRLKKQGTLESFFKRKAK (Pol32 (C subunit of DNA polymerase delta), S. cerevisiae, residues 333-350 (the C-terminal end; K is the last residue of Pol32) with the PIP motif QxxLxxFF; also called Pol32 peptide; Pol32 PIP motif peptide; source: synthetic peptide, bought: Genecust, 95% purity) [pPol32 333–350]
